# According to patent publication US20180312587A1 (ADURO BIOTECH HOLDINGS EUROPE B V, published 2018):
# B1: hSIRPα.50A (antibody, V domains shown)
# VH: QVQLQQSGPELVKPGASVRISCKASGFTFTNYYIHWVKQRPGQGLEWIGWIYPGNVNTKYNEKFKAKATLTADKSSTTAYMQLSSLASEDSAVYFCARPTIIATDFDVWGAGTTVTVSS
# VL: DIVMTQSHKFMSTSVGDRVNITCKASQGVGTAVGWYQQKPGQSPRLLIYWASTRHTGVPDRFTGSGSGTDFSLAISNVQSEDLADYFCQQYSTYPFTFGGGTNLEIK
# notes: light chain constant domain not tied; also called mouse hSIRPα.50A; hSIRPα.50A.mIgG1
# B2: hSIRPα.40A (antibody, mouse IgG1, kappa, V domains shown)
# VH: EVQFQQSGTVLARPGTSVKMSCKASGSTFTSYWMHWVKQGPGQGLQWIGAIYPVNNDTTYNQKFKGKAELTVVTSTSTAYMEVSSLTNEDSAVYYCTRSFYYSLDAAWFVYWGQGTLVTVSA
# VL: DIQMTQSPSSLSASLGERVSLTCRASQDIGSRLNWLQQEPDGTIKRLIYATSSLDSGVPKRFSGSRSGSDYSLTISGLESEDFVDYYCLQYASSPFTFGGGTKLEINR
# notes: mouse antibody, full chains without signal peptide; also called mouse hSIRPα.40A
# B3: KWAR23 (antibody, V domains shown)
# VH: EVQLQQSGAELVKPGASVKLSCTASGFNIKDYYIHWVQQRTEQGLEWIGRIDPEDGETKYAPKFQDKATITADTSSNTAYLHLSSLTSEDTAVYYCARWGAYWGQGTLVTVSS
# VL: QIVLTQSPAIMSASPGEKVTLTCSASSSVSSSYLYWYQQKPGSSPKLWIYSTSNLASGVPARFSGSGSGTSYSLTISSMEAEDAASYFCHQWSSYPRTFGAGTKLELK
# Experiments:
# [1] = target: T1, hSIRPα expressed on primary human cells (human, UniProt P78324 31-504); assay: flow cytometry, primary CD14+ enriched monocytes, donor 2
# T1 construct: whole, on cells; also called hSIRPα on primary human CD14+ monocytes; on primary human granulocytes
# Protocol: Next, the binding of hSIRPα.50A to hSIRPα expressed on primary human CD14⁺ monocytes was investigated. In addition, the ability of hSIRPα.50A to block the interaction between hSIRPα and recombinant hCD47/Fc-protein was assessed. For this purpose, CD14+ monocytes were isolated from Ficoll-purified human peripheral blood mononuclear cells (PBMCs) using RosetteSep human monocyte enrichment cocktail (Stemcell). The percentage of monocytes present after the enrichment was determined by flow cytometry on the FACSVerse (BD Biosciences) based on CD14 staining using an APC-Cy7-conjugated mouse-anti-human CD14 detection antibody (BD Biosciences). […] After this labeling procedure, cells were washed two times, resuspended in PBS/1% BSA containing 0.1 μg/mL DAPI (BioLegend), and analysed by flow cytometry on the FACSVerse (BD Biosciences). Data were processed and analysed with FlowJo V10 software (FlowJo, LLC).
# To assess the blocking ability of hSIRPα.50A, CD14+ enriched monocytes cells were seeded in 96-well round bottomed tissue culture plates and incubated for 45 minutes with FcR Blocking Reagent (Miltenyi Biotec) and hSIRPα.50A antibody (200 μg/mL and dilutions thereof) in PBS/1% BSA at 4° C. […] After this labeling procedure, cells were washed two times, resuspended in PBS/1% BSA containing 0.1 μg/mL DAPI (BioLegend), and analysed by flow cytometry on the FACSVerse (BD Biosciences). […]
# [2] = target: T1, hSIRPα expressed on primary human cells; assay: flow cytometry on CD14+ enriched monocytes, human donor 2; blocked ligand: DyLight 488-labeled recombinant hCD47/Fc
# Protocol: To assess the blocking ability of hSIRPα.40A, CD14+ enriched monocytes cells were seeded in 96-well round bottomed tissue culture plates and incubated for 45 minutes with FcR Blocking Reagent (Miltenyi Biotec) and hSIRPα.40A antibody (20 μg/mL and dilutions thereof) in PBS/1% BSA at 4° C. […] After this labeling procedure, cells were washed two times, resuspended in PBS/1% BSA containing 0.1 μg/mL DAPI (BioLegend), and analysed by flow cytometry on the FACSVerse (BD Biosciences). Data were processed and analysed with FlowJo V10 software (FlowJo, LLC). […] IC50 values represent the concentration at which half of the inhibition is observed.
# [3] = target: T2, human SIRPβ1 (human, UniProt O00241 30-398); assay: CELISA, CHO-K1 transfectants
# T2 construct: also called hSIRPβ1
# Protocol: Reactivity was confirmed using CHO-K1 cells (ATCC CCL-61) that had been transiently transfected, using Lipofectamine 2000, with cDNA encoding the full length open reading frame of hSIRPαV1, hSIRPαV2, hSIRPβ1, hSIRPβL, and hSIRPγ subcloned into the pCI-neo vector (Promega, Madison, Wis.). CHO-K1.hSIRPαV1, CHO-K1.hSIRPαV2, CHO-K1.hSIRPβ1, CHO-K1.hSIRPβL, and CHO-K1.hSIRPγ cells were seeded in culture medium (DMEM-F12 (Gibco) supplemented with 5% New Born Calf Serum (BioWest) and Pen/Strep (Gibco)) in 96-well flat-bottom tissue culture plates and incubated at 37° C., 5% CO₂ and 95% humidity for 24 hours. Subsequently, culture medium was removed and cells were incubated for 1 hour at 37° C., 5% CO₂ and 95% humidity with purified hSIRPα antibodies (used at 10 μg/mL and dilutions thereof). Next, cells were washed with PBS-T and incubated for 1 hour at 37° C., 5% CO₂ and 95% humidity with goat-anti-mouse IgG-HRP (Southern Biotech). Subsequently, cells were washed three times with PBS-T and immunoreactivity against hSIRPαV1, hSIRPαV2, hSIRPβ1, hSIRPβL, and hSIRPγ was visualized with TMB Stabilized Chromogen (Invitrogen). Reactions were stopped with 0.5 M H₂SO₄ and absorbances were read at 450 and 610 nm.
# The KWAR23 antibody cross-reacts with all members of the SIRP receptor family tested: it binds to hSIRPαV1, hSIRPαV2, hSIRPβ1, hSIRPβL, and hSIRPγ.
# [4] = target: T2, human SIRPβ1; assay: CELISA, CHO-K1 transfectants; average of two experiments
# Protocol: The binding specificity of antibody hSIRPα.50A to hSIRPα was compared antibody KWAR23 (Canadian Patent 2939293 A1), in a CELISA format. CHO-K1 cells were transiently transfected with hSIRPαV1, hSIRPαV2, hSIRPβ1, and hSIRPγ (GenBank accession: NM_018556.3) (SEQ ID NO: 39) cDNAs. Subsequently, hSIRPα binding was assessed by CELISA using CHO-K1.hSIRPαV1, CHO-K1.hSIRPαV2, CHO-K1.hSIRPβ1, and CHO-K1.hSIRPγ cells. Detection of bound antibody was performed with goat-anti-mouse IgG-HRP (Southern Biotech) for mouse antibodies including hSIRPα.50A and control antibodies or, alternatively, with goat-anti-human IgG-HRP conjugate (Jackson Immuno Research) for the KWAR23 antibody. KWAR23 (SEQ ID NO: 130; SEQ ID NO: 131) was expressed as a chimeric human IgG4 kappa antibody in CHO cells. As shown in FIG. 2 and the following Table 9, KWAR23 antibody cross-reacts with all members of the SIRP receptor family tested: it binds to hSIRPαV1, hSIRPαV2, hSIRPβ1, and hSIRPγ.
# T1 sequence (P78324 31-504): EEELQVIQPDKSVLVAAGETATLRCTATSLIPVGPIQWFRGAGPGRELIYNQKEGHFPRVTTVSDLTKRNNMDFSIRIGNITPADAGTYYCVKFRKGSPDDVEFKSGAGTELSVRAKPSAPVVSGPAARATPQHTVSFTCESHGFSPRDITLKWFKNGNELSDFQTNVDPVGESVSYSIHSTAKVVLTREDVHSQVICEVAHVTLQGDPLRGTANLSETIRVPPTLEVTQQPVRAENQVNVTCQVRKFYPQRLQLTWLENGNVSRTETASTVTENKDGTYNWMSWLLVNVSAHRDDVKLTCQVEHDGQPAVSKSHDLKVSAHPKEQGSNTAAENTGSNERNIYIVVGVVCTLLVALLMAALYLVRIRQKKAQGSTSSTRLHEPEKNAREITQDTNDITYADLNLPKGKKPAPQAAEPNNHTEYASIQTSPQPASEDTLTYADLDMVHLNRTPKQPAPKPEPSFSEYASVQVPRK
# T2 sequence (O00241 30-398 limits assumed): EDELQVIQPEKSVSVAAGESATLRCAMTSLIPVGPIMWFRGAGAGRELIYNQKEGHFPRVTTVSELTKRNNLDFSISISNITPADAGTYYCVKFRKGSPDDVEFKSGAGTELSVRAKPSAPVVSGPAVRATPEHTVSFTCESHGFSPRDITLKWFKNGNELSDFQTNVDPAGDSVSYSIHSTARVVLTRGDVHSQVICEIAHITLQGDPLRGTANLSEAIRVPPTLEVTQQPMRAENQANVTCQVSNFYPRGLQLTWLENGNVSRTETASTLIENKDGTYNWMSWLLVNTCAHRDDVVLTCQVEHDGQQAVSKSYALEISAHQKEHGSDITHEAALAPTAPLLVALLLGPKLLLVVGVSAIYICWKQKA
binder,measurement,setting,value
B1,EC50,[1],3.08 nM
B2,IC50 (read off the curve),[2],~0.5 nM
B3,EC50,[3],0.14 nM
same,EC50,[4],0.161 nM
